Measured values published in patent publication US20260042849.

Assays:
[1] = system: internally quenched peptide probe with CM 7052 (PLGL, SEQ ID NO: 107)
[2] = system: internally quenched peptide probe with CM RSPWGL (SEQ ID NO: 182)
[3] = system: internally quenched peptide probe with CM PMGLK (SEQ ID NO: 64)
[4] = system: internally quenched peptide probe with CM 7049 (PFGL, SEQ ID NO: 104)
[5] = system: internally quenched peptide probe with CM 7051 (PMGL, SEQ ID NO: 106)
[6] = system: internally quenched peptide probe with CM 7041 (PWGL, SEQ ID NO: 100)
[7] = system: internally quenched peptide probe with CM 7055 (PHGL, SEQ ID NO: 10)
[8] = system: internally quenched peptide probe with CM 7053 (PQGL, SEQ ID NO: 9)
[9] = system: internally quenched peptide probe with CM 7047 (PYGL, SEQ ID NO: 103)
[10] = system: internally quenched peptide probe with CM APMGLKH (SEQ ID NO: 7)
[11] = system: internally quenched peptide probe with CM 7056 (PEGL, SEQ ID NO: 11)
[12] = system: internally quenched peptide probe with CM PWGLRS (SEQ ID NO: 181)
[13] = system: internally quenched peptide probe with CM PMGLKS (SEQ ID NO: 5)
[14] = system: internally quenched peptide probe with CM 7050 (PRGL, SEQ ID NO: 105)
[15] = system: internally quenched peptide probe with CM 7054 (PKGL, SEQ ID NO: 108)

Chain of human recombinant MMP9 (R&D Systems, catalog No: 911-MP) (chain, as listed by the source): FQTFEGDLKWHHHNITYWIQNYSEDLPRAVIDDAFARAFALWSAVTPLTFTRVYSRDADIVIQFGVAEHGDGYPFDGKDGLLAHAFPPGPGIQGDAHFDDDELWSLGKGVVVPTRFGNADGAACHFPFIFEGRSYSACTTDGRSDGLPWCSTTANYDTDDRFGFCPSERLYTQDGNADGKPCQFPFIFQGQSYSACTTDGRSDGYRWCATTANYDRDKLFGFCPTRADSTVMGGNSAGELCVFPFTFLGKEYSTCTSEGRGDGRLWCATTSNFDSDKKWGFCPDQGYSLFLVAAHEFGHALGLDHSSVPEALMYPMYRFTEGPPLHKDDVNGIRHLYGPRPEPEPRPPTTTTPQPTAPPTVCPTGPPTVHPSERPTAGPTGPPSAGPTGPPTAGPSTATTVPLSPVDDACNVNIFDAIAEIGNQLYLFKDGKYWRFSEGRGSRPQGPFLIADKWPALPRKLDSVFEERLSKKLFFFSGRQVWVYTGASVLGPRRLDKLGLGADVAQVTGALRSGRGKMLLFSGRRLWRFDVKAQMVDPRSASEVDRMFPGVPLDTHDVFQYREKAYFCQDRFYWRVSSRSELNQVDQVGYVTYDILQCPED

Substance: human recombinant MMP9 (R&D Systems, catalog No: 911-MP)
- stated: cleaved (kcat/Km, M-1s-1, bar on a log axis) [1]: PLGL, MMP9 bar ends between 1x10^4 and 1x10^5
- Probe Cleavage (kcat/KM) [2]: 870000 M⁻¹ s⁻¹
- Probe Cleavage (pM/s) [2]: 25500 pM/s
- Probe Cleavage (kcat/KM) [3]: 140000 M⁻¹ s⁻¹
- Probe Cleavage (pM/s) [3]: 6080 pM/s
- kcat/KM (M^-1 s^-1) [4]: greater than 5×10^2 M^-1 s^-1
- stated: cleaved (kcat/Km, M-1s-1, bar on a log axis) [4]: PFGL, MMP9 bar ends at about the 1x10^4 tick
- stated: cleaved (kcat/Km, M-1s-1, bar on a log axis) [5]: PMGL, MMP9 bar ends between 1x10^3 and 1x10^4, close under 1x10^4
- stated: cleaved (kcat/Km, M-1s-1, bar on a log axis) [6]: PWGL, MMP9 bar ends just above the 1x10^4 tick
- stated: cleaved (kcat/Km, M-1s-1, bar on a log axis) [7]: PHGL, MMP9 bar ends between 1x10^3 and 1x10^4
- stated: cleaved (kcat/Km, M-1s-1, bar on a log axis) [8]: PQGL, MMP9 bar ends between 1x10^3 and 1x10^4
- kcat/KM (M^-1 s^-1) [9]: greater than 5×10^2 M^-1 s^-1
- stated: cleaved (kcat/Km, M-1s-1, bar on a log axis) [9]: PYGL, MMP9 bar ends at about the 1x10^4 tick
- Probe Cleavage (kcat/KM) [10]: 2.8e+06 M⁻¹ s⁻¹
- Probe Cleavage (pM/s) [10]: 115000 pM/s
- kcat/KM (M^-1 s^-1) [11]: greater than 5×10^2 M^-1 s^-1
- stated: cleaved (kcat/Km, M-1s-1, bar on a log axis) [11]: PEGL, MMP9 bar ends between 1x10^2 and 1x10^3, just under the 1x10^3 tick
- Probe Cleavage (kcat/KM) [12]: 150000 M⁻¹ s⁻¹
- Probe Cleavage (pM/s) [12]: 3830 pM/s
- Probe Cleavage (kcat/KM) [13]: 3.1e+06 M⁻¹ s⁻¹
- Probe Cleavage (pM/s) [13]: 133000 pM/s
- stated: cleaved (kcat/Km, M-1s-1, bar on a log axis) [14]: PRGL, MMP9 bar ends between 1x10^4 and 1x10^5
- stated: cleaved (kcat/Km, M-1s-1, bar on a log axis) [15]: PKGL, MMP9 bar ends just above the 1x10^4 tick
